The target in experiment [1] is T1, AcsA from Chloroflexota bacterium (Chloroflexota bacterium, UniProt Z9YKO5Y7U4).
T1 construct: monomer in solution and crystal; expression and tag not described; His476 found phosphorylated
T1 sequence (Z9YKO5Y7U4 9-657): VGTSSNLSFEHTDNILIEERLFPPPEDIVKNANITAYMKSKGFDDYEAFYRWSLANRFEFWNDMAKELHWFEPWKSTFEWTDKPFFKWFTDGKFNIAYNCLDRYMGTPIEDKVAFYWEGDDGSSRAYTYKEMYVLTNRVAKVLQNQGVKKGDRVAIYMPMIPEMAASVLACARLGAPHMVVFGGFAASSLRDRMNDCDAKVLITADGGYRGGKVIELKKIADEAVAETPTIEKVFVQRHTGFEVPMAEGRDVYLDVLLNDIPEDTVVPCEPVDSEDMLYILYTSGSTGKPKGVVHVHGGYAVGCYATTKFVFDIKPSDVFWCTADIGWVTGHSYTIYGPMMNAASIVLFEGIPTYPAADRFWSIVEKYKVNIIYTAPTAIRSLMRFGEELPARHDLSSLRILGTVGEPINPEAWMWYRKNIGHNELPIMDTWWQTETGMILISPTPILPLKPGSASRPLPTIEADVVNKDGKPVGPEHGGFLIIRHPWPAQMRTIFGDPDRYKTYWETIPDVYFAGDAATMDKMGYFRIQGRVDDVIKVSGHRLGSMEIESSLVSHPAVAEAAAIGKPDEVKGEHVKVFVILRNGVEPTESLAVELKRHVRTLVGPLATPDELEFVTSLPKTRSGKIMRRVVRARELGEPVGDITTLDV
As to the kind of experiment: X-ray crystallography. It counts as binding. Particulars: product of the first half-reaction; thioester-forming conformation.

A further experiment deals with T2, AcsA V477A (Bacillus subtilis, UniProt P39062 1-572, V477A).
T2 construct: AcsA, Bacillus subtilis, UniProt P39062, with V477A
T2 sequence (looked up): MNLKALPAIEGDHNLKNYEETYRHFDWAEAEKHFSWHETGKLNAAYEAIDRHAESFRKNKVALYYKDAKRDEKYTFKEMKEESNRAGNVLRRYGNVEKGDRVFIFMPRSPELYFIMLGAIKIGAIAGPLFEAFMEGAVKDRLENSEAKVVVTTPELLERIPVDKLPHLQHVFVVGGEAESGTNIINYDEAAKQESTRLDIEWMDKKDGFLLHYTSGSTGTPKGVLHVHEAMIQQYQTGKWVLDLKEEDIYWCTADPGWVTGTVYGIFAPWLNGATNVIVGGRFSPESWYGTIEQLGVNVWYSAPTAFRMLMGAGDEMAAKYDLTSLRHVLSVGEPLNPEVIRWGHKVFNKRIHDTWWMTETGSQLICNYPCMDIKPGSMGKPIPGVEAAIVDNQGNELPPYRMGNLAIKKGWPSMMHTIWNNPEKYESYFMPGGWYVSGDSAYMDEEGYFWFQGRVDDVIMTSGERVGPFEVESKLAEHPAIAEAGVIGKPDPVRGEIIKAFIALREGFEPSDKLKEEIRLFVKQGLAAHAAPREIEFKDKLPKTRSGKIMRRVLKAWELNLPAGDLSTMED
Kind of experiment: SEC; analytical SEC of equimolar AcsA and AcuA (wild type or mutants), incubated 30 min at room temperature, Superdex 200 10/300 GL, 50 mM Tris/HCl pH 8, 50 mM KCl, 2 mM β-mercaptoethanol; 100 µl of 50–100 µM; without ligand or with a tenfold molar excess of CoA or AcP alone. Particulars: both partners purified. (In general: In gel filtration, larger molecules generally elute earlier.)

Another experiment has as its target T3, AcsA E473A (Bacillus subtilis, UniProt P39062 1-572, E473A).
T3 construct: AcsA, Bacillus subtilis, UniProt P39062, with E473A
T3 sequence (looked up): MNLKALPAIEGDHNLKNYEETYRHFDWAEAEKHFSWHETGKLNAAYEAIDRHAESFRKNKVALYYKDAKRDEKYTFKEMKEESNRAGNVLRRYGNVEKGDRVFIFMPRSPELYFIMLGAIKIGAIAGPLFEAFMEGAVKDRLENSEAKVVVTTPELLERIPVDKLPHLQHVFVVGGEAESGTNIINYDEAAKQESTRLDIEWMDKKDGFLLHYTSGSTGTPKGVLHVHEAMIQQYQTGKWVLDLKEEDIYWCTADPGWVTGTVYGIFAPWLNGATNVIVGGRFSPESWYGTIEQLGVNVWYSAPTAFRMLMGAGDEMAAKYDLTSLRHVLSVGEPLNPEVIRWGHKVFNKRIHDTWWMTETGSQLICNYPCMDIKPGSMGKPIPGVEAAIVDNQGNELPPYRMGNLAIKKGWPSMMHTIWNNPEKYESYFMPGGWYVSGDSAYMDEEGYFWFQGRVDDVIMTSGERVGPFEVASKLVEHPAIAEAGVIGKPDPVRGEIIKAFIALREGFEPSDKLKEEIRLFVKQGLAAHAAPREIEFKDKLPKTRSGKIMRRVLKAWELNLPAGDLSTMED
The experiment is described as above. Particulars: both partners purified.

The target of a further experiment is T4, AcsA K549Q (Bacillus subtilis, UniProt P39062 1-572, K549Q).
T4 construct: AcsA, Bacillus subtilis, UniProt P39062, with K549Q; also called acetylation-mimetic mutant AcsA K549Q
T4 sequence (looked up): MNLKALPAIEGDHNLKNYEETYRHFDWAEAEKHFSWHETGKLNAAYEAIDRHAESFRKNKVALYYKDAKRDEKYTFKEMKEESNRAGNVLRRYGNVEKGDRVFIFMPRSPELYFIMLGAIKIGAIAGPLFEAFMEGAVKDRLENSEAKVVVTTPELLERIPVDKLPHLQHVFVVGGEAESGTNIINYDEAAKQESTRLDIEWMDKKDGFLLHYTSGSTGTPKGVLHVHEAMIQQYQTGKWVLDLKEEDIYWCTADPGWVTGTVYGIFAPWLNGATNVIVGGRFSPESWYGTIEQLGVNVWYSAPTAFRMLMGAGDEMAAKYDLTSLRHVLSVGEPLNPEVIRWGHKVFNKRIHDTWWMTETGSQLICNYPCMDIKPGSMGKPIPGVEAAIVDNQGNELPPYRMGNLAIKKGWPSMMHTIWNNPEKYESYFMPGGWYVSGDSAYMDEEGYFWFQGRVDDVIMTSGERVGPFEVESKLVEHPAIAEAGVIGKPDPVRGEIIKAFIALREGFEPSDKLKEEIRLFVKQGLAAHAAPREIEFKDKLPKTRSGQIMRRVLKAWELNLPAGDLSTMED
Described as above. Particulars: both partners purified.

The target of another experiment is T5, AcsA K549R (Bacillus subtilis, UniProt P39062 1-572, K549R).
T5 construct: AcsA, Bacillus subtilis, UniProt P39062, with K549R; also called non-acetylated mutant AcsA K549R
T5 sequence (looked up): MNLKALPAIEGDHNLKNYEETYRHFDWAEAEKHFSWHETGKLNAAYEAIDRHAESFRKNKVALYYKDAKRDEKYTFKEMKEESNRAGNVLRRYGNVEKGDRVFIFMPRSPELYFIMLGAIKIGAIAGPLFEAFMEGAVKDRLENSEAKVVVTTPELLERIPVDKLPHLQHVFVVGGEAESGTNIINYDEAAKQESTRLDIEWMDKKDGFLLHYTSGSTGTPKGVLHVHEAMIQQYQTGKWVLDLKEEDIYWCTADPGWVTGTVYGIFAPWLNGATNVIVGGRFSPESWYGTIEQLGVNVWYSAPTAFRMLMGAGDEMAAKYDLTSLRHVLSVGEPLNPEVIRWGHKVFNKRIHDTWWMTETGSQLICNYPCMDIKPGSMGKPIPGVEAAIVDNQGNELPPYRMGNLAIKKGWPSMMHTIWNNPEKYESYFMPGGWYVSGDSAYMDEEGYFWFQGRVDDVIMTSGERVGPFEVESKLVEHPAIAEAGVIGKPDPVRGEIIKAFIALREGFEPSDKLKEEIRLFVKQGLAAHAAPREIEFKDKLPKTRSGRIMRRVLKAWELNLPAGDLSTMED
The description is as above. Particulars: both partners purified.

In experiment [2] the target is Bacillus subtilis AMP-forming acetyl-CoA synthetase AcsA (Bacillus subtilis) (UniProt P39062). Described as above.

For the molecule `CC(=O)OP(=O)(O)OC[C@H]1O[C@@H](n2cnc3c(N)ncnc32)[C@H](O)[C@@H]1O` [acetyl-AMP], in experiment [1], the X-ray crystallography result is recorded as “structure solved in complex with acetyl-AMP, i.e. the product of the first half-reaction”.

B1: Bacillus subtilis acetyltransferase AcuA (enzyme, UniProt P39065 1-210, looked up)
chain: MEHHKTYHSANIKTATGSLLIEGPVSPEDLAGYEFHKDLTAFRPPREQHEALVDIAGLPEGRIIIARDGRTIVGYVTYLYPDPLERWSEGNMEDLIELGAIEVAPDYRGCAVGKTLLTVSMMDEQMENYIVMTTEYYWHWDLKGMKKDVWEYRKIMEKMMNAGGLVWFATDEPEISSHPANCLMARIGKNVSQESIEQFDRLRFYHRYMY
notes: GNAT-related lysine acetyltransferase AcuA, Bacillus subtilis, UniProt P39065; synthetic gene codon optimized for E. coli; also called AcuA wildtype; AcuA WT; source: E. coli BL21 (DE3), pET45b(+), purified (HisTrap FF, Ni2+)
B1: the binding result in the experiment with AcsA V477A, with AcsA E473A, with AcsA K549Q and with AcsA K549R was “binds” each time. Moreover, the stoichiometry N (AcuA per AcsA (2:2)) in experiment [2] came to 1.

These data come from article PMC11255334, “Acetyl-CoA synthetase activity is enzymatically regulated by lysine acetylation using acetyl-CoA or acetyl-phosphate as donor molecule” (Nature Communications, 2024).
